According to IntAct's records for PubMed 26342861:

B1: Wnt inhibitory factor 1 (Homo sapiens), Q9Y5W5 (parent)
chain: MARRSAFPAAALWLWSILLCLLALRAEAGPPQEESLYLWIDAHQARVLIGFEEDILIVSEGKMAPFTHDFRKAQQRMPAIPVNIHSMNFTWQAAGQAEYFYEFLSLRSLDKGIMADPTVNVPLLGTVPHKASVVQVGFPCLGKQDGVAAFEVDVIVMNSEGNTILQTPQNAIFFKTCQQAECPGGCRNGGFCNERRICECPDGFHGPHCEKALCTPRCMNGGLCVTPGFCICPPGFYGVNCDKANCSTTCFNGGTCFYPGKCICPPGLEGEQCEISKCPQPCRNGGKCIGKSKCKCSKGYQGDLCSKPVCEPGCGAHGTCHEPNKCQCQEGWHGRHCNKRYEASLIHALRPAGAQLRQHTPSLKKAEERRDPPESNYIW
partner: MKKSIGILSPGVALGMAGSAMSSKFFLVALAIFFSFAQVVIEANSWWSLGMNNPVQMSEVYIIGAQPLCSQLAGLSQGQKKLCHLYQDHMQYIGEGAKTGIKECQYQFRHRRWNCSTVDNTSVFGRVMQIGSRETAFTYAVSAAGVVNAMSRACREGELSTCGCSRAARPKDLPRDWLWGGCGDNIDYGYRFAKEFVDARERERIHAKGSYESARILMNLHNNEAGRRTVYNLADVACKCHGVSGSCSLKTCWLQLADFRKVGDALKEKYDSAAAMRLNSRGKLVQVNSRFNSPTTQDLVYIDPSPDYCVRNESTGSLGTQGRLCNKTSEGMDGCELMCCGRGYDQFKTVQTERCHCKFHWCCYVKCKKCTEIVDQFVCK
B2: Wnt inhibitory factor 1 (Homo sapiens), Q9Y5W5 (parent)
chain: B1 chain
partner: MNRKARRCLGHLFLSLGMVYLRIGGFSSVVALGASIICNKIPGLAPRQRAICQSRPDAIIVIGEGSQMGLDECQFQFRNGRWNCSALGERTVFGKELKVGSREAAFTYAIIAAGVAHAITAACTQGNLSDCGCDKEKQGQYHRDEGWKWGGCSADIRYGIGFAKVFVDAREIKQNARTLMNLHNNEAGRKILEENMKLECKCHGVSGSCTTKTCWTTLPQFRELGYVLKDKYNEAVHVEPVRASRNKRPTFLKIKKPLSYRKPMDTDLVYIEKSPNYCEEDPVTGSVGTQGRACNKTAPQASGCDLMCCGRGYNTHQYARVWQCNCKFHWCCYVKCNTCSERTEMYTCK

Variants of: B1
Conditions: with wnt5a_human WNT5A

Row | Variant | effect of a mutation on the interaction
1 | I155R | disrupting interaction

Variants of: B1
Conditions: with wnt5a_human WNT5A
Remark: another data set of the same source

Row | Variant | effect of a mutation on the interaction
2 | I155R | decreasing interaction

Variants of: B2
Conditions: with wnt7a_human WNT7A

Row | Variant | effect of a mutation on the interaction
3 | I172R | decreasing interaction
4 | I155R | decreasing interaction
5 | L123R | decreasing interaction

Variants of: B2
Conditions: with wnt7a_human WNT7A
Remark: another data set of the same source

Row | Variant | effect of a mutation on the interaction
6 | I155R | increasing interaction
